Our source for the cooperativity (n) of the O2 equilibrium curve, pH 7.2, 20 °C values is paper PMC6343008.

The target in the test is Globin E1 of the South American lungfish Lepidosiren paradoxa, recombinant (Lepidosiren paradoxa).

Take “Globin E1 of the South American lungfish Lepidosiren paradoxa, recombinant (natural protein)”: the cooperativity (n) of the O2 equilibrium curve, pH 7.2, 20 °C came out at 1.19.
